The values that follow come from PMC7367873, “Dissecting the sequence determinants for dephosphorylation by the catalytic subunits of phosphatases PP1 and PP2A” (Nature Communications, 2020).

Assay [1] deals with GFP-14-3-3β and its binding proteins. The experiment in a line: GFP-14-3-3β co-IP with LC-MS/MS label-free quantification, untreated versus PP1c-treated. Details: species or system human. As to conditions: PP1 vs untreated; label-free quantification. Here is the method: (§1) HeLa Kyoto cells expressing transiently transfected pEGFP(C1)-14-3-3β or pEGFP(C1) control plasmid, were incubated with 20 nM Calyculin A (# 9902 S, Cell Signaling Technology) for 12 min. Cells were washed twice on ice with cold PBS and after addition of 500 µL lysis buffer (100 mM NaCl, 10 mM Tris, 0.1% IGEPAL, 1 mM EDTA, 1 mM EGTA, 20 nM Calyculin A, 1x cOmplete Mini protease inhibitor cocktail (Sigma), 1 mM DTT, 1 mM MnCl2) cells were scraped from plates, lysed by 10 pushes through an injection needle (21 G, BD) and the insoluble fraction was pelleted by centrifugation (10 min, 10^4 rcf, 4 °C). Supernatants were then subjected to incubation with 1 µM recombinant phosphatase or buffer for 1 h at 30 °C. Next, we subjected samples to immunoprecipitation using α-GFP nanobodies covalently coupled to agarose beads (2 h, 4 °C, obtained from the EMBL PEPcore Core Facility). Beads were then washed three times with lysis buffer and samples were eluted in 1x LDS sample buffer (Thermo Fisher Scientific) by heating to 70 °C for 10 min.
(§2) The samples were then reduced with 25 mM dithiothreitol (10 min at 70 °C) and alkylated with 55 mM chloroacetamide (room temperature, 30 min, in the dark). Proteins were run on a precast 4–12% NuPAGE gel (ThermoFisher Scientific) for about 1 cm to concentrate the sample prior to in-gel tryptic digestion, which was performed according to the standard procedures. The peptides obtained were dried to completeness and resuspended in 12 µL of buffer A (0.1% FA), and 5 µL of sample were injected per MS measurement. The experiment was carried out in three independent replicates.
(§3) The samples were analyzed by LC-MS/MS on a Dionex Ultimate 3000 nano-HPLC coupled online to a Fusion Lumos Tribrid mass spectrometer (Thermo Fisher Scientific). Peptides were delivered to a trap column (75 µm × 2 cm, packed in-house with 5 µm C18 resin; Reprosil PUR AQ, Dr. Maisch) and washed using 0.1% FA at a flow rate of 5 µL/min for 10 min. Subsequently, peptides were transferred to an analytical column (75 µm × 45 cm, packed in-house with 3 µm C18 resin; Reprosil Gold) applying a flow rate of 300 nL/min and separated using a 60 min linear gradient from 4% to 32% LC solvent B (0.1% FA, 5% DMSO in ACN) in LC solvent A (0.1% FA in 5% DMSO). The eluate from the analytical column was sprayed via a stainless steel emitter (Thermo Fisher Scientific) at a source voltage of 2.1 kV into the mass spectrometer. The transfer capillary was heated to 275 °C. The Fusion Lumos was operated in positive ionization mode and data-dependent acquisition (DDA), automatically switching between MS1 and MS2 spectrum acquisition. Full scan MS1 spectra were recorded in the Orbitrap from 360 to 1300 m/z at a resolution of 60k (automatic gain control (AGC) target value of 4e5 charges, maximum injection time (maxIT) of 50 ms). Up to 20 peptide precursors were isolated (isolation window, 1.7 m/z; maximum injection time, 25 ms; and AGC value, 1e5), fragmented by high-energy collision-induced dissociation (HCD) using 30% normalized collision energy (NCE), and analyzed at a resolution of 15k in the Orbitrap. Precursor ions that were singly charged, unassigned, or with charge states >6+ were excluded. The dynamic exclusion duration of fragmented precursor ions was 20 s.
(§4) Peptide and protein identification and LFQ were performed using MaxQuant software (version 1.6.1.0)[64] by searching the data against all canonical protein sequences as annotated in the Swissprot reference database (human proteins only, 20193 entries, downloaded 22 March 2016, internally annotated with PFAM domains) using the embedded search engine Andromeda[65]. The MaxQuant search was performed using two variable modifications; oxidation of methionine and N-terminal protein acetylation. Carbamidomethylation on cysteines was specified as a fixed modification. Trypsin (Trypsin/P) was specified as the proteolytic enzyme with up to two allowed missed cleavage sites.

Another assay has as its system GFP-14-3-3β. The experiment in a line: GFP-14-3-3β co-IP with LC-MS/MS, untreated GFP-14-3-3β versus GFP control (14-3-3 interactome). Format: binding, human. As to conditions: untreated vs GFP; label-free quantification. How it is done: as §1, §2, §3, §4

B1: PFKL (protein, UniProt P17858 2-780, looked up)
ATP-dependent …: AAVDLEKLRASGAGKAIGVLTSGGDAQGMNAAVRAVTRMGIYVGAKVFLIYEGYEGLVEGGENIKQANWLSVSNIIQLGGTIIGSARCKAFTTREGRRAAAYNLVQHGITNLCVIGGDGSLTGANIFRSEWGSLLEELVAEGKISETTARTYSHLNIAGLVGSIDNDFCGTDMTIGTDSALHRIMEVIDAITTTAQSHQRTFVLEVMGRHCGYLALVSALASGADWLFIPEAPPEDGWENFMCERLGETRSRGSRLNIIIIAEGAIDRNGKPISSSYVKDLVVQRLGFDTRVTVLGHVQRGGTPSAFDRILSSKMGMEAVMALLEATPDTPACVVTLSGNQSVRLPLMECVQMTKEVQKAMDDKRFDEATQLRGGSFENNWNIYKLLAHQKPPKEKSNFSLAILNVGAPAAGMNAAVRSAVRTGISHGHTVYVVHDGFEGLAKGQVQEVGWHDVAGWLGRGGSMLGTKRTLPKGQLESIVENIRIYGIHALLVVGGFEAYEGVLQLVEARGRYEELCIVMCVIPATISNNVPGTDFSLGSDTAVNAAMESCDRIKQSASGTKRRVFIVETMGGYCGYLATVTGIAVGADAAYVFEDPFNIHDLKVNVEHMTEKMKTDIQRGLVLRNEKCHDYYTTEFLYNLYSSEGKGVFDCRTNVLGHLQQGGAPTPFDRNYGTKLGVKAMLWLSEKLREVYRKGRVFANAPDSACVIGLKKKAVAFSPVTELKKDTDFEHRMPREQWWLSLRLMLKMLAQYRISMAAYVSGELEHVTRRTLSMDKGF
Take B1: in assay [1], the “Difference (log2), PP1 vs untreated” value is listed as 1.256 log2. Besides, the “Difference (log2), untreated vs GFP” value with GFP-14-3-3β is on record as -0.3869 log2.

B2: RBM3 (protein, UniProt P98179 1-157, looked up)
RNA-binding protein 3: MSSEEGKLFVGGLNFNTDEQALEDHFSSFGPISEVVVVKDRETQRSRGFGFITFTNPEHASVAMRAMNGESLDGRQIRVDHAGKSARGTRGGGFGAHGRGRSYSRGGGDQGYGSGRYYDSRPGGYGYGYGRSRDYNGRNQGGYDRYSGGNYRDNYDN
On to B2, for which the “Difference (log2), PP1 vs untreated” value in assay [1] was 1.211 log2. For the same molecule, the “Difference (log2), untreated vs GFP” value in the assay with GFP-14-3-3β worked out at 0.8571 log2.

B3: ERLIN1 (protein, UniProt O75477 1-348, looked up)
Erlin-1: MNMTQARVLVAAVVGLVAVLLYASIHKIEEGHLAVYYRGGALLTSPSGPGYHIMLPFITTFRSVQTTLQTDEVKNVPCGTSGGVMIYIDRIEVVNMLAPYAVFDIVRNYTADYDKTLIFNKIHHELNQFCSAHTLQEVYIELFDQIDENLKQALQKDLNLMAPGLTIQAVRVTKPKIPEAIRRNFELMEAEKTKLLIAAQKQKVVEKEAETERKKAVIEAEKIAQVAKIRFQQKVMEKETEKRISEIEDAAFLAREKAKADAEYYAAHKYATSNKHKLTPEYLELKKYQAIASNSKIYFGSNIPNMFVDSSCALKYSDIRTGRESSLPSKEALEPSGENVIQNKESTG
For B3, in assay [1], the “Difference (log2), PP1 vs untreated” value is 1.221 log2. In addition, the “Difference (log2), untreated vs GFP” value with GFP-14-3-3β was 0.5977 log2.

B4: FAM83B (protein, UniProt Q5T0W9 1-1011, looked up)
Protein FAM83B: METSSMLSSLNDECKSDNYIEPHYKEWYRVAIDILIEHGLEAYQEFLVQERVSDFLAEEEINYILKNVQKVAQSTAHGTDDSCDDTLSSGTYWPVESDVEAPNLDLGWPYVMPGLLGGTHIDLLFHPPRAHLLTIKETIRKMIKEARKVIALVMDIFTDVDIFKEIVEASTRGVSVYILLDESNFNHFLNMTEKQGCSVQRLRNIRVRTVKGQDYLSKTGAKFHGKMEQKFLLVDCQKVMYGSYSYMWSFEKAHLSMVQIITGQLVESFDEEFRTLYARSCVPSSFAQEESARVKHGKALWENGTYQHSVSSLASVSSQRNLFGRQDKIHKLDSSYFKNRGIYTLNEHDKYNIRSHGYKPHFVPNFNGPNAIRQFQPNQINENWKRHSYAGEQPETVPYLLLNRALNRTNNPPGNWKKPSDSLSVASSSREGYVSHHNTPAQSFANRLAQRKTTNLADRNSNVRRSFNGTDNHIRFLQQRMPTLEHTTKSFLRNWRIESYLNDHSEATPDSNGSALGDRFEGYDNPENLKANALYTHSRLRSSLVFKPTLPEQKEVNSCTTGSSNSTIIGSQGSETPKEVPDTPTNVQHLTDKPLPESIPKLPLQSEAPKMHTLQVPENHSVALNQTTNGHTESNNYIYKTLGVNKQTENLKNQQTENLLKRRSFPLFDNSKANLDPGNSKHYVYSTLTRNRVRQPEKPKEDLLKSSKSMHNVTHNLEEDEEEVTKRNSPSGTTTKSVSIAALLDVNKEESNKELASKKEVKGSPSFLKKGSQKLRSLLSLTPDKKENLSKNKAPAFYRLCSSSDTLVSEGEENQKPKKSDTKVDSSPRRKHSSSSNSQGSIHKSKEDVTVSPSQEINAPPDENKRTPSPGPVESKFLERAGDASAPRFNTEQIQYRDSREINAVVTPERRPTSSPRPTSSELLRSHSTDRRVYSRFEPFCKIESSIQPTSNMPNTSINRPEIKSATMGNSYGRSSPLLNYNTGVYRSYQPNENKFRGFMQKFGNFIHKNK
Turning to B4, in assay [1], the “Difference (log2), PP1 vs untreated” value amounted to 1.224 log2. Also, in the assay with GFP-14-3-3β, the “Difference (log2), untreated vs GFP” value is given as -0.8224 log2.

B5: PRSS56 (protein, UniProt P0CW18 20-603, looked up)
Serine protease 56: HPLYTRLPPSALQVLSAQGTQALQAAQRSAQWAINRVAMEIQHRSHECRGSGRPRPQALLQDPPEPGPCGERRPSTANVTRAHGRIVGGSAAPPGAWPWLVRLQLGGQPLCGGVLVAASWVLTAAHCFVGAPNELLWTVTLAEGSRGEQAEEVPVNRILPHPKFDPRTFHNDLALVQLWTPVSPGGSARPVCLPQEPQEPPAGTACAIAGWGALFEDGPEAEAVREARVPLLSTDTCRRALGPGLRPSTMLCAGYLAGGVDSCQGDSGGPLTCSEPGPRPREVLFGVTSWGDGCGEPGKPGVYTRVAVFKDWLQEQMSASSSREPSCRELLAWDPPQELQADAARLCAFYARLCPGSQGACARLAHQQCLQRRRRCELRSLAHTLLGLLRNAQELLGPRPGLRRLAPALALPAPALRESPLHPARELRLHSGSRAAGTRFPKRRPEPRGEANGCPGLEPLRQKLAALQGAHAWILQVPSEHLAMNFHEVLADLGSKTLTGLFRAWVRAGLGGRHVAFSGLVGLEPATLARSLPRLLVQALQAFRVAALAEGEPEGPWMDVGQGPGLERKGHHPLNPQVPPARQP
Take B5: the “Difference (log2), PP1 vs untreated” value in assay [1] is 1.257 log2. Moreover, in the assay with GFP-14-3-3β, the “Difference (log2), untreated vs GFP” value is on record as -0.4107 log2.

B6: NCBP1 (protein, UniProt Q09161 1-790, looked up)
Nuclear cap-binding protein …: MSRRRHSDENDGGQPHKRRKTSDANETEDHLESLICKVGEKSACSLESNLEGLAGVLEADLPNYKSKILRLLCTVARLLPEKLTIYTTLVGLLNARNYNFGGEFVEAMIRQLKESLKANNYNEAVYLVRFLSDLVNCHVIAAPSMVAMFENFVSVTQEEDVPQVRRDWYVYAFLSSLPWVGKELYEKKDAEMDRIFANTESYLKRRQKTHVPMLQVWTADKPHPQEEYLDCLWAQIQKLKKDRWQERHILRPYLAFDSILCEALQHNLPPFTPPPHTEDSVYPMPRVIFRMFDYTDDPEGPVMPGSHSVERFVIEENLHCIIKSHWKERKTCAAQLVSYPGKNKIPLNYHIVEVIFAELFQLPAPPHIDVMYTTLLIELCKLQPGSLPQVLAQATEMLYMRLDTMNTTCVDRFINWFSHHLSNFQFRWSWEDWSDCLSQDPESPKPKFVREVLEKCMRLSYHQRILDIVPPTFSALCPANPTCIYKYGDESSNSLPGHSVALCLAVAFKSKATNDEIFSILKDVPNPNQDDDDDEGFSFNPLKIEVFVQTLLHLAAKSFSHSFSALAKFHEVFKTLAESDEGKLHVLRVMFEVWRNHPQMIAVLVDKMIRTQIVDCAAVANWIFSSELSRDFTRLFVWEILHSTIRKMNKHVLKIQKELEEAKEKLARQHKRRSDDDDRSSDRKDGVLEEQIERLQEKVESAQSEQKNLFLVIFQRFIMILTEHLVRCETDGTSVLTPWYKNCIERLQQIFLQHHQIIQQYMVTLENLLFTAELDPHILAVFQQFCALQA
Consider B6, for which the “Difference (log2), PP1 vs untreated” value in assay [1] came to 1.197 log2. In addition, in the assay on GFP-14-3-3β, the “Difference (log2), untreated vs GFP” value is on record as -0.001907 log2.
